# Source: patent US20230212587A1, “Mutant Hydroxyphenylpyruvate Dioxygenase Polypeptide, Encoding Gene Thereof and Use Therefor” (Beijing Dabeinong Biotechnology Co., Ltd., priority 2019, published 2023)
# Substitutions are numbered along the chain they refer to. Names and notes keep the numbering of the source.
# B1: AsHPPDm-A110: Avena sativa HPPD with deletion of alanine at position 110, SEQ ID NO: 414 (protein)
# chain: MPPTPATATGAAAAAVTPEHAARSFPRVVRVNPRSDRFPVLSFHHVELWCADAASAAGRFSFALGAPLAARSDLSTGNSAHASLLLRSGALAFLFTAPYAPPPQEAATAATASIPSFSADAARTFAAAHGLAVRSVGVRVADAAEAFRVSVAGGARPAFAPADLGHGFGLAEVELYGDVVLRFVSYPDETDLPFLPGFERVSSPGAVDYGLTRFDHVVGNVPEMAPVIDYMKGFLGFHEFAEFTAEDVGTTESGLNSVVLANNSEAVLLPLNEPVHGTKRRSQIQTYLEYHGGPGVQHIALASNDVLRTLREMRARTPMGGFEFMAPPQAKYYEGVRRIAGDVLSEEQIKECQELGVLVDRDDQGVLLQIFTKPVGDRPTFFLEMIQRIGCMEKDEVGQEYQKGGCGGFGKGNFSELFKSIEDYEKSLEVKQSVVAQKS
# modifications: AsHPPDm-A110 Amino Acid Sequence
# B2: PfHPPDm-G413W: Pseudomonas fluorescens HPPD with G336W (position 413 of SEQ ID NO: 1), SEQ ID NO: 418 (protein)
# chain: MADLYENPMGLMGFEFIEFASPTPGTLEPIFEIMGFTKVATHRSKNVHLYRQGEINLILNNEPNSIASYFAAEHGPSVCGMAFRVKDSQKAYNRALELGAQPIHIDTGPMELNLPAIKGIGGAPLYLIDRFGEGSSIYDIDFVYLEGVERNPVGAGLKVIDHLTHNVYRGRMVYWANFYEKLFNFREARYFDIKGEYTGLTSKAMSAPDGMIRIPLNEESSKGAGQIEEFLMQFNGEGIQHVAFLTDDLVKTWDALKKIGMRFMTAPPDTYYEMLEGRLPDHGEPVDQLQARGILLDGSSVEGDKRLLLQIFSETLMGPVFFEFIQRKGDDGFGEWNFKALFESIERDQVRRGVLTAD
# modifications: PfHPPDm-G413W Amino Acid Sequence
# B3: F372G (protein, listed as Avena sativa)
# chain: MPPTPATATGAAAAAVTPEHAARSFPRVVRVNPRSDRFPVLSFHHVELWCADAASAAGRFSFALGAPLAARSDLSTGNSAHASLLLRSGALAFLFTAPYAPPPQEAATAAATASIPSFSADAARTFAAAHGLAVRSVGVRVADAAEAFRVSVAGGARPAFAPADLGHGFGLAEVELYGDVVLRFVSYPDETDLPFLPGFERVSSPGAVDYGLTRFDHVVGNVPEMAPVIDYMKGFLGFHEFAEFTAEDVGTTESGLNSVVLANNSEAVLLPLNEPVHGTKRRSQIQTYLEYHGGPGVQHIALASNDVLRTLREMRARTPMGGFEFMAPPQAKYYEGVRRIAGDVLSEEQIKECQELGVLVDRDDQGVLLQIGTKPVGDRPTFFLEMIQRIGCMEKDEVGQEYQKGGCGGFGKGNFSELFKSIEDYEKSLEVKQSVVAQKS
# modifications: AsHPPD Amido Acid Sequence
# B4: F372Q (protein, listed as Avena sativa)
# chain: B3 chain with G372Q
# modifications: AsHPPD Amido Acid Sequence
# B5: F372D (protein, listed as Avena sativa)
# chain: B3 chain with G372D
# modifications: AsHPPD Amido Acid Sequence
# B6: F372V (protein, listed as Avena sativa)
# chain: B3 chain with G372V
# modifications: AsHPPD Amido Acid Sequence
# B7: F372I (protein, listed as Avena sativa)
# chain: B3 chain with G372I
# modifications: AsHPPD Amido Acid Sequence
# B8: F372N (protein, listed as Avena sativa)
# chain: B3 chain with G372N
# modifications: AsHPPD Amido Acid Sequence
# Test system: Arabidopsis thaliana T1 plants
# Assay: Topramezone tolerance of transgenic Arabidopsis thaliana T1 plants (pesticide damage grade by bleached leaf area, score, resistance evaluation)
# Type: in vivo
# Set-up: score: scale not given here
# Conditions: Arabidopsis thaliana T1 plants sprayed with topramezone
# Text: The Arabidopsisthaliana T1 plants into which the AsHPPDm-F372A-02 nucleotide sequence was introduced, Arabidopsis thaliana T1 plants into which the AsHPPD-02 nucleotide sequence was introduced and wild-type Arabidopsisthaliana plants (18 days after sowing) were sprayed with topramezone at four different concentrations, i.e., 25 g ai/ha (one-fold field concentration, 1×), 50 g ai/ha (two-fold field concentration, 2×), 100 g ai/ha (four-fold field concentration, 4×) and 0 g ai/ha (water, 0×) to determine the tolerance of Arabidopsisthaliana to the herbicide. The degree of damage caused by the herbicide was measured for each plant according to the proportion of bleached leaf area (the proportion of bleached leaf area=bleached leaf area/total leaf area×100%) 7 days after spraying (7 DAT): the case where there is basically no bleached phenotype is defined as grade 0, the case where the proportion of bleached leaf area is less than 50% is defined as grade 1,the case where the proportion of bleached leaf area is more than 50% is defined as grade 2, and the case where the proportion of bleached leaf area is 100% grade is defined as grade 3.
# (§1) According to the method as described above in point 6 of Example 1, the aforementioned Arabidopsisthaliana T1 plants and wild-type Arabidopsisthaliana plants (18 days after sowing) were sprayed with topramezone at three different concentrations respectively, i.e., 25 g ai/ha (one-fold field concentration, 1×), 100 g ai/ha (four-fold field concentration, 4×) and 0 g ai/ha(water, 0×) to detect the tolerance of Arabidopsisthaliana to the herbicide.
# as §1, with “1x),” for “1×),”, “4x)” for “4×)”, “ai/ha (water, 0x)” for “ai/ha(water, 0×)”
# According to the method as described above in point 6 of Example 1, the above-mentioned Arabidopsisthaliana T1 plants, Arabidopsisthaliana T1 plants into which the AsHPPD-02 nucleotide sequence was introduced, Arabidopsisthaliana T1 plants into which the PfHPPD-02 nucleotide sequence was introduced, and wild-type Arabidopsisthaliana plants (18 days after sowing) were sprayed with topramezone at four different concentrations respectively, that is, 25 g ai/ha (one-fold field concentration, 1x), 50 g ai/ha (two-fold field concentration, 2x), 100 g ai/ha (four-fold field concentration, 4x) and 0 g ai/ha (water, Ox) to detect the herbicide tolerance of Arabidopsisthaliana.
# According to the method as described in point 6 of Example 1, the above-mentioned Arabidopsisthaliana T1 plants and wild-type Arabidopsisthaliana plants (18 days after sowing) were sprayed with topramezone at two different concentrations respectively, that is, 25 g ai/ha (one-fold field concentration, 1x) and 100 g ai/ha (four-fold field concentration, 4x) to detect the herbicide tolerance of Arabidopsisthaliana,. […]
row,Molecule,"tolerance to topramezone, in words"
1,B1,a certain tolerance to low concentration of topramezone
2,B2,a certain tolerance to low concentration of topramezone

# Same assay, conditions: saturation mutation of HPPD from Avena sativa source (label F372X = AsHPPDm-F372X); topramezone 25, 50, 100 g ai/ha
row,Molecule,"tolerance to topramezone, in words"
1,B3,better tolerance
2,B4,better tolerance
3,B5,better tolerance
4,B6,better tolerance
5,B7,better tolerance
6,B8,better tolerance

# Same assay, conditions: topramezone 25 g ai/ha (1x); HPPD from Avena sativa source
Molecule,Resistance Grade,score
B3,Highly resistant,0
B4,Highly resistant,0
B5,Highly resistant,7
B6,Highly resistant,0
B8,Highly resistant,7

# Same assay, conditions: topramezone 25 g ai/ha (1x); number of plants; HPPD from Avena sativa source
Molecule,Grade 0,Grade 1,Grade 2,Grade 3
B3,20,0,0,0
B4,20,0,0,0
B5,16,4,0,0
B6,20,0,0,0
B8,18,0,2,0

# Same assay, conditions: topramezone 25 g ai/ha; mutation combination, Table 8
Molecule,Grade 0 (number of plants),Grade 1 (number of plants),Grade 2 (number of plants),Grade 3 (number of plants),Resistance Grade,score
B1,4,16,0,0,Moderately resistant,27
B2,2,18,0,0,Moderately resistant,30

# Same assay, conditions: topramezone 50 g ai/ha (2x); HPPD from Avena sativa source
Molecule,Resistance Grade,score
B3,Highly resistant,0
B4,Highly resistant,0
B5,Highly resistant,0
B6,Highly resistant,0
B8,Highly resistant,0

# Same assay, conditions: topramezone 50 g ai/ha (2x); number of plants; HPPD from Avena sativa source
Molecule,Grade 0,Grade 1,Grade 2,Grade 3
B3,20,0,0,0
B4,20,0,0,0
B5,20,0,0,0
B6,20,0,0,0
B8,20,0,0,0

# Same assay, conditions: topramezone 100 g ai/ha (4x); HPPD from Avena sativa source
Molecule,Resistance Grade,score
B3,Highly resistant,0
B4,Highly resistant,0
B5,Highly resistant,0
B6,Highly resistant,0
B8,Highly resistant,0

# Same assay, conditions: topramezone 100 g ai/ha (4x); number of plants; HPPD from Avena sativa source
Molecule,Grade 0,Grade 1,Grade 2,Grade 3
B3,20,0,0,0
B4,20,0,0,0
B5,20,0,0,0
B6,20,0,0,0
B8,20,0,0,0

# Same assay, conditions: topramezone 100 g ai/ha; mutation combination, Table 8
Molecule,Grade 0 (number of plants),Grade 1 (number of plants),Grade 2 (number of plants),Grade 3 (number of plants),Resistance Grade,score
B1,0,0,14,6,Non-resistant,77
B2,0,0,10,10,Non-resistant,83
